Measurements as given in the supplement of paper PMC9170038.

Test system: MS2 coat protein
Experiment: apparent KD of MS2 coat protein; designed switch direction (-1 OFF switch, 1 ON switch): -1; higher = weaker reporter binding
In short: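 On Illumina chips, designed RNA switches with common flanks were made by stalled E. coli RNA polymerase. Titrations with SNAP-549-labelled MS2 coat protein, doubling from 0.7 or 1.5 nM to 3 µM, were done with no input, with 200 uM small-molecule ligand, or with an oligonucleotide input. Apparent KD is the median per design over clusters, from curve fits of normalised cluster fluorescence.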

[1] = Eterna round: R95, input ligand: FMN 200 uM
[2] = Eterna round: R95, input ligand: microRNA oligo, concentration not stated
[3] = Eterna round: R95, input ligand: none
[4] = input ligand: microRNA oligo, concentration not stated

| Sequence | apparent KD of MS2 coat protein [1] [nM] | apparent KD of MS2 coat protein [2] [nM] | apparent KD of MS2 coat protein [3] [nM] | apparent KD of MS2 coat protein (input ligand: FMN 200 uM) [nM] | apparent KD of MS2 coat protein (input ligand: none) [nM] | apparent KD of MS2 coat protein [4] [nM] |
| --- | --- | --- | --- | --- | --- | --- |
| GGGAACGUAGGAUAUACAUGAGGAUCACCCAUGUGAGGAAGGAGUAGGAAGCGUGGAAGUAGAAGGACGGAGAG [JR_Exclu3_Sub074] (puzzle: Exclusion 3) | 40.6 | 31.5 | 46.4 | – | – | – |
| GGGCCCGGAGGAUAUACAAUUUUGGGCCGAAAGGCCCGGGUACAUGAGGAUCACCCAUGUAGAAGGCCGGGCCC [-41.7, -39.1 kcal A 24%, 5a,0] (Eterna round: R97, puzzle: Exclusion 2) | – | – | – | 134 | 32.4 | – |
| GGGCCCGGUGUGAGGAUAUGAGUUCGGAAAUGAGCUUAGAAGGCACAUGAGGAUCACCCAUGUAAGCCGGGCCC [-34.2, -32.1 kcal, A 26%, 1-0] (Eterna round: R97, puzzle: Brourd's mod of Exclusion 4) | – | – | – | 14.3 | 35.6 | – |
| GGGCUCGGAGGAUAUACAUGAGGAUCACCCAUGUAGGGCCCGGGUAUUCCCGGGCCCUGUAGAAGGCUGGGUCU [-39, -36.1 kcal, A 19%, 0-7] (Eterna round: R97, puzzle: Exclusion 3) | – | – | – | 19.7 | 16.5 | – |
| GGGUGACAUGAGGAUCACCCAUGUCAGGAUAUGCUUCGGCUUCGGAAAUGAAGUUGAAGUAGAAGGGACUGCCC [-30.1, -29.1 kcal, A 27% sequence 3 bis] (Eterna round: R97, puzzle: Exclusion 1) | – | – | – | 84.4 | 42.2 | – |
| GGGUGACAUGAGGAUCACCCAUGUCAGGAUAUGGGCCCGGGCCCGAAAGGGCCCGGGUUUAGAAGGGACUGCCC [-44.4, -43.4 kcal, 22%A (-3 GC series)] (Eterna round: R97, puzzle: Exclusion 1) | – | – | – | 59.3 | 42.9 | – |
| GGGUGCAGGCUAAGAUCCUACAUGAGGAUCACCCAUGUGGUCCGGUGACGUGAGUCACCGGACUUAGCUCGUCUUGU [salish99_S_TOV1_R5_006] (Eterna round: R97, puzzle: Sensor, turn-off variant 1) | – | – | – | 133 | 142 | – |
| GGGUGCAGGCUGGGAUCCUACAUGAGGAUCACCCAUGUGGUCCGGUGACGUGAGUCACCGGACUUAGCUCGUCUUGU [salish99_S_TOV1_R5_008] (Eterna round: R97, puzzle: Sensor, turn-off variant 1) | – | – | – | 569 | 865 | – |
| GGUACUAACACGAGAGUGUUAGUACUAUAAGCUUGUGUUACAUGAGGAUCACCCAUGUCCUCAUAAGCUCGUCUUGU [Mat - Sensor v3 - Turn-off var 2 - D88] (puzzle: Sensor v3, turn-off variant 2) | 48.2 | 54.8 | 46.8 | – | – | – |
| GGUACUAACACGAGAGUGUUAGUACUAUAAGCUUGUGUUACAUGAGGAUCACCCAUGUCCUCAUAGGCUCGUCUUAG [Mat - Sensor v3 - Turn-off var 2 - D84] (puzzle: Sensor v3, turn-off variant 2) | 93.7 | 34.8 | 91.9 | – | – | – |
| GGUACUCAAAGAGUACCAAUACGAACAUGAGGAUCACCCAUGUAGGAUAUGCUACUCAAAGAGUAGCAGAAGGACGUGUGCCUU [Far Half Aptamer v4] (Eterna round: R96, puzzle: Exclusion NG 3) | – | – | – | – | – | 15.6 |
| GGUAGAGUGGUAGGAUAUCCGGCUGUUUCAGUCGGAGAAGGACCACAGUCACUGGGUCCAAAUAUGGGUGACCAUGUAUCUACC [pwkr exNG1 F6.6] (Eterna round: R96, puzzle: Exclusion NG 1) | – | – | – | 984 | 371 | 337 |
| GGUCAAGAACAGAUCCGCGCUGUCCUUGACCGCUCAUUUACAUGAGGAUCACCCAUGUUUUUUGCUUGUCUUGUUAC [Tixegeis] (puzzle: Sensor v3, turn-off variant 2) | 17.4 | 96.7 | 16.5 | – | – | – |
| GGUCAAGAGCAGAUCCGCGCUGCCAUUGACCGCUCAUUUACAUGAGGAUCACCCAUGUUUUUUGCUCGUCUUACUAC [Inedsoinin] (puzzle: Sensor v3, turn-off variant 2) | 18.2 | 57.9 | 20.3 | – | – | – |
| GGUCAGCUAGGAUAUACAUGAGGAUCACCCAUGUACUGACCCAUGCGGGAGCCUGCAUGUAGAAGGAGCAAUAU [Onzatiqula] (Eterna round: R97, puzzle: Exclusion 3) | – | – | – | 37 | 55.3 | – |
| GGUCAUCAAGUCAGGAUAUCGUCUGAUCAAUCAGGCGAGAAGGGACAUGAGGAUCACCCAUGUCGACUCAUCAG [Ex4 #7] (Eterna round: R97, puzzle: Brourd's mod of Exclusion 4) | – | – | – | 85.3 | 19.4 | – |
